The text below walks through data of US20110045046A1.

Where no end group is shown, it is not given here. Side-chain parts run from the residue outwards.

Experiment [1] has as its target T1, H-2K^b class I MHC molecule (mouse).
T1 chain 1: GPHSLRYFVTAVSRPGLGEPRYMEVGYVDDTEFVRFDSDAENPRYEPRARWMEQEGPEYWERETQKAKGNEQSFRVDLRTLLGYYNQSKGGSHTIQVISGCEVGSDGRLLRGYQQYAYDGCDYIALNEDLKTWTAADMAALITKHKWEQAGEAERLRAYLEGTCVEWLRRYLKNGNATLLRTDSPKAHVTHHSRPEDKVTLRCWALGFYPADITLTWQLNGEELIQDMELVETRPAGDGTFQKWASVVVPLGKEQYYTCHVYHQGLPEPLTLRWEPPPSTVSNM
T1 chain 2: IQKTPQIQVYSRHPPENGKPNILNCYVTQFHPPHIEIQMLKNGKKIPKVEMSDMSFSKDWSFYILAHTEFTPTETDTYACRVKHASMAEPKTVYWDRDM
The experiment in a line: K^b binding capacity.

The target of experiment [2] is HLA-A*0206 (human). The experiment in a line: MHC binding assay with purified MHC molecules.
For experiment [3], the target named is HLA-A*0201 (human). The experiment in a line: inhibition of binding of a radioiodinated peptide to the MHC molecule (50% inhibition; column headed KD).
The target in experiment [4] is HLA-A*0203 (human). The experiment is described as above.
In experiment [5] the target is HLA-A*0201 (human). The experiment in a line: MHC binding assay with purified MHC molecules.
Experiment [6] deals with HLA-A*0203 (human). The experiment in a line: MHC binding assay with purified MHC molecules.
The target in experiment [7] is HLA-A*0202 (human). The experiment in a line: MHC binding assay with purified MHC molecules.

Turning to AIIAS([GalNAc-Gal])FAAL [AIIA(β-Gal-[1->3]-α-GalNAc-O-serine)FAAL], the IC50 – broadly, the concentration needed to halve the response being measured – in experiment [1] was 7 nM.
ALASAAAAV (modifications not checked) [ALA(GALNAc-O-S)SAAAAV] displayed a half-inhibitory concentration (IC50) in experiment [2] of 81 nM.
With LLLLTVLTV (modifications not checked) [LLLL(Tn-T)LTV], the Kd – broadly, the concentration at which binding is half-saturated – in experiment [3] was 1300 nM; in experiment [4], 4290 nM.
In experiment [2], ALASAAAAV (modifications not checked) showed an IC50 of 266 nM.
Turning to TLTSCNTSV (modifications not checked), the IC50 in experiment [2] came out at 15 nM; in experiment [5], 0.29 nM; in experiment [6] it was 13 nM; in experiment [7] it was 8.1 nM.
The like results for TLTSCNTSV (modifications not checked) [TLT(GalNAc-O-S)CNTSV] were, in that order, 24 nM, 0.72 nM, 8.2 nM and 15 nM.
